In PMC10716122 one finds ratio to parent data, which are given here for two variants.

First the molecules themselves.
B1: Cyclic GMP-AMP synthase (cGAS), wild type, expressed in human cells [human] / TRIM41, HA-tagged [human] (parent)
chain 1: MQPWHGKAMQRASEAGATAPKASARNARGAPMDPTESPAAPEAALPKAGKFGPARKSGSRQKKSAPDTQERPPVRATGARAKKAPQRAQDTQPSDATSAPGAEGLEPPAAREPALSRAGSCRQRGARCSTKPRPPPGPWDVPSPGLPVSAPILVRRDAAPGASKLRAVLEKLKLSRDDISTAAGMVKGVVDHLLLRLKCDSAFRGVGLLNTGSYYEHVKISAPNEFDVMFKLEVPRIQLEEYSNTRAYYFVKFKRNPKENPLSQFLEGEILSASKMLSKFRKIIKEEINDIKDTDVIMKRKRGGSPAVTLLISEKISVDITLALESKSSWPASTQEGLRIQNWLSAKVRKQLRLKPFYLVPKHAKEGNGFQEETWRLSFSHIEKEILNNHGKSKTCCENKEEKCCRKDCLKLMKYLLEQLKERFKDKKHLDKFSSYHVKTAFFHVCTQNPQDSQWDRKDLGLCFDNCVTYFLQCLRTEKLENYFIPEFNLFSSNLIDKRSKEFLTKQIEYERNNEFPVFDEF
chain 2: MAAVAMTPNPVQTLQEEAVCAICLDYFTDPVSIGCGHNFCRVCVTQLWGGEDEEDRDELDREEEEEDGEEEEVEAVGAGAGWDTPMRDEDYEGDMEEEVEEEEEGVFWTSGMSRSSWDNMDYVWEEEDEEEDLDYYLGDMEEEDLRGEDEEDEEEVLEEVEEEDLDPVTPLPPPPAPRRCFTCPQCRKSFPRRSFRPNLQLANMVQVIRQMHPTPGRGSRVTDQGICPKHQEALKLFCEVDEEAICVVCRESRSHKQHSVVPLEEVVQEYKAKLQGHVEPLRKHLEAVQKMKAKEERRVTELKSQMKSELAAVASEFGRLTRFLAEEQAGLERRLREMHEAQLGRAGAAASRLAEQAAQLSRLLAEAQERSQQGGLRLLQDIKETFNRCEEVQLQPPEVWSPDPCQPHSHDFLTDAIVRKMSRMFCQAARVDLTLDPDTAHPALMLSPDRRGVRLAERRQEVADHPKRFSADCCVLGAQGFRSGRHYWEVEVGGRRGWAVGAARESTHHKEKVGPGGSSVGSGDASSSRHHHRRRRLHLPQQPLLQREVWCVGTNGKRYQAQSSTEQTLLSPSEKPRRFGVYLDYEAGRLGFYNAETLAHVHTFSAAFLGERVFPFFRVLSKGTRIKLCP

The variants in the test derive from B1. Nature of the test: co-IP (IP: GFP, blot cGAS-HA), band intensity printed under blot. The note with it: with TRIM41, HA-tagged [human]; HEK293T cells; TRIM41-GFP co-expressed; 100 μg/mL etoposide for 4 h; parent: 1.
In the case of chain 1 S305A, the ratio to parent was 0.51. In the case of chain 1 S120A, the ratio to parent worked out at 0.68.
